In test [1] the test system is IL-8, CXCR1 and CXCR2 mRNA in PC9GR. In words: Real-time PCR gene expression in PC9GR. In kind it is cell-based, human. Particulars: 5 μM Gefitinib, 24 hrs. An excerpt: (§1) 18 s was used as an internal loading control.
[…]. […] That is to say, RISE P-8 can compete with IL-8 and attenuate its feedback to regulate gene expression of IL-8, CXCR1 and CXCR2 decreased.
(In qPCR the cycle at which signal appears reflects the starting amount.)

Test [2] deals with IL-8, CXCR1 and CXCR2 mRNA in HCC827GR. The test is described as follows: Real-time PCR gene expression in HCC827GR. It counts as cell-based, human.
Excerpt: as §1
That is to say, RISE P-8 can compete with IL-8 and attenuate its feedback to regulate gene expression of IL-8, CXCR1 and CXCR2 decreased.

The subject of another test is IL-8 in PC9GR. In words: IL-8 protein expression in 3D (suspended) culture. It counts as cell-based, human. Conditions: RISE P-8 200 ng/ml, 24 hrs, 2D vs suspended. Here is the method: (§2) Cells underwent serum-free 16-18 hr and suspended into 10^6 cells/mL in growth medium. 2×10^6 cells/well were seeded in coating/non-coating 6 well plates and treated with/without RISE P-8 (200 ng/ml) for 24 hrs.

The next test has as its system IL-8 in PC9. The test is described as follows: IL-8 protein expression in 3D (suspended) culture. In kind it is cell-based, human. Particulars: PC9, RISE P-8 200 ng/ml, 24 hrs, 2D vs suspended. On the procedure: as §2
The test system of test [3] is PC9GR. The test is described as follows: Matrigel transwell invasion assay. It counts as cell-based, human. On the procedure: (§3) The invasion ability of cell was performed by using 8 μm pore size transwell (Corning FluoroBlok™). The transwell insert was coated with 60 μl matrigel (300 μg/ml in serum-free medium, BD Bioscience) overnight at 37° C. in 5% CO2 atmosphere. 2.5×10^4 cells in 0.2 mL of serum-free growth medium were seeded into the upper chamber coated with matrigel and then treated with drugs IL-8 (100 ng/ml) with/without RISE P-8 (200 ng/ml). After incubation for 24 hrs at 37° C. in 5% CO2, membrane of upper chamber was fixed with methanol and stained with propidium iodide (PI). The invasive cells in the bottom of membrane were imaged and counted by using an inverted fluorescence microscope (Observer.Z1, Zeiss) in five random fields of each specimen (magnification, ×100).

Test [4] deals with HCC827GR. In words: Matrigel transwell invasion assay. In kind it is cell-based, human. On the procedure: as §3
For a further test, the system named is human neutrophil. In words: Modified Boyden chamber neutrophil chemotaxis to CXCL8. It counts as cell-based. Particulars: CXCL8 combined with RISE P-8 in lower compartment. Here is the method:
Please refer to FIG. 5, neutrophil chemotaxis was assessed using modified Boyden chamber microchemotaxis assays. The CXCL8 alone or combined with RISE P-8, were placed in the lower compartment of the Boyden chamber wells and purified neutrophil in the upper compartment. The migrated neutrophil were lysed and detected. The percentages of neutrophil migration were assessed and presented with Chemotaxis Index (CI) value. That is to say, CI=(intensityRISE P-8−intensityHBSS)/(intensityCXCL8−intensityHBSS)×100%.

The test system of test [5] is LL/2 cells (Lewis lung carcinoma). The test is described as follows: Matrigel transwell invasion assay. Particulars: RISE P-8 200 ng/ml, 24 hr. It counts as cell-based, mouse. On the procedure: Lewis lung carcinoma (LL/2) is a cell line established from the lung of a C57BL mouse bearing a tumor resulting from an implantation of primary Lewis lung carcinoma.
Please refer to FIG. 13A and FIG. 13B, the present invention also represented invasion of LL/2 cells (Louis lung carcinoma) treated with CXCL8, MIP-2 or RISE P-8. The character of LL/2 cancer cell is very prone to invasion into lung and grows rapidly. The LL/2 cells were seeded onto Matrigel-coated polycarbonate filters to analyze their invasive potentials. The cells were then incubated for 24 hr in chambers and were analyzed by staining PI and counted under a microscope. Representative fields of invasive cells on the transwell membrane (at 100× magnification) and the invasion rate were shown. The LL/2 cells treated with CXCL8 (100 ng/ml), RISE P-8 (200 ng/ml), or MIP-2 (50 ng/ml) respectively. […] MIP-2 is the CXCL8 homologues in murine.

The subject of test [6] is PC9GR. In words: Colony formation assay. In kind it is cell-based, human. Conditions: RISE P-8 200 ng/mL with Gefitinib 5 μM, vs control group and IL-8 group. Here is the method:
(§4) The colony formation assay was also performed to evaluate cell proliferation.

In test [7] the test system is HCC827GR. In words: Colony formation assay. It counts as cell-based, human. Conditions: RISE P-8 200 ng/mL with Gefitinib 5 μM, vs control group and IL-8 group. Here is the method:
as §4

The mark [8] stands for this setting: IL-8 100 ng/mL + RISE P-8 200 ng/mL vs IL-8 group.
The mark [9] stands for this setting: RISE P-8 200 ng/mL, Gefitinib 5 μM, 24 hrs, vs control group.

Take `COc1cc2ncnc(Nc3ccc(F)c(Cl)c3)c2cc1OCCCN1CCOCC1` [Gefitinib]: in [1], the “IL-8, CXCR1 and CXCR2 mRNA expression” value is on record as “significantly enhanced”. Moreover, the “IL-8, CXCR1 and CXCR2 mRNA expression” value in [2] (5 μM Gefitinib, 24 hrs) is “significantly enhanced”. Besides, in test [2] (gefitinib 5 μM, 24 hours), the “CXCR1 and CXCR2 mRNA expression” value is on record as “increased”; the “IL-8 mRNA expression” value is listed as “increased”.

B1: RISE P-8: chemokine analogue peptide, SEQ ID NO: 1; analogous protein of CXCL8 (IL-8), antagonist of CXCR1 and CXCR2 (protein)
chain: GSKELRCQCIRSYSKPFHPKFIKELRVIPASQFCANTEIIVKLSDGRELCLDPKENWVQRVVEKFLKRAENS
modifications: RISE P-8
notes: analogous protein of CXCL8 (IL-8), antagonist of CXCR1 and CXCR2
Turning to B1, the “IL-8 protein expression (autocrine secretion)” value with IL-8 in PC9GR and with IL-8 in PC9 was “significantly attenuate IL-8 autocrine only in suspended culture” in each case. The “invasion rate, IL-8 stimulated” value in the test on PC9GR [3] (setting [8]) and in the test with HCC827GR [4] (setting [8]) was “prevent significantly invasion rate” throughout. The invasion rate entry with PC9GR [3] (setting [9]) and with HCC827GR [4] (setting [9]) was “decreases invasion rate” in each case. Besides, the “neutrophil chemotaxis (Chemotaxis Index)” value with human neutrophil is given as “effectively antagonize neutrophil response to CXCL8”. Also, the “invasion rate, CXCL8 stimulated” value in [5] (LL/2, CXCL8 100 ng/ml) is given as “significantly suppressed CXCL8 stimulated cell invasion”. In [5] (LL/2, MIP-2 50 ng/ml), the “number of invasive cells, MIP-2 induced” value is “significantly decreased the number of invasive cells”. The colony formation rate entry in the test with PC9GR [6] and with HCC827GR [7] was “slow down significantly” each time.

Source of the values: patent publication US12226454B2, “Pharmaceutical compositions and use thereof for relieving anticancer drug resistance and enhancing sensitivity of anticancer drug” (Rise Biopharmaceuticals Inc., priority 2015, dated 2025).
